Experimental data reported in article PMC7488863, “Overexpression of transcription factor SlWRKY28 improved the tolerance of Populus davidiana × P. bolleana to alkaline salt stress”.

Legend:
GST-SlWRKY28 [1] = molecular target: T1, GST-SlWRKY28 (Salix linearistipularis, UniProt A0A4D6JIT6 1-474); assay: EMSA; EMSA/gel-shift binding buffer (Beyotime kit, 5x stock, 2 uL per 10 uL reaction), 25 C, 20 min; salt and pH not stated; details: protein: recombinant; tags: N-terminal GST (pGEX-6p-3); label: biotin (both probe strands); blunt
GST-SlWRKY28 [2] = molecular target: T1, GST-SlWRKY28; assay: competition; 10x and 50x unlabeled probe against Biotin-Pr; complex signal weak with cold probe; EMSA/gel-shift binding buffer (Beyotime kit, 5x stock, 2 uL per 10 uL reaction), 25 C, 20 min; salt and pH not stated; details: protein: recombinant; tags: N-terminal GST (pGEX-6p-3); blunt

T1 sequence (A0A4D6JIT6 entry or part of it): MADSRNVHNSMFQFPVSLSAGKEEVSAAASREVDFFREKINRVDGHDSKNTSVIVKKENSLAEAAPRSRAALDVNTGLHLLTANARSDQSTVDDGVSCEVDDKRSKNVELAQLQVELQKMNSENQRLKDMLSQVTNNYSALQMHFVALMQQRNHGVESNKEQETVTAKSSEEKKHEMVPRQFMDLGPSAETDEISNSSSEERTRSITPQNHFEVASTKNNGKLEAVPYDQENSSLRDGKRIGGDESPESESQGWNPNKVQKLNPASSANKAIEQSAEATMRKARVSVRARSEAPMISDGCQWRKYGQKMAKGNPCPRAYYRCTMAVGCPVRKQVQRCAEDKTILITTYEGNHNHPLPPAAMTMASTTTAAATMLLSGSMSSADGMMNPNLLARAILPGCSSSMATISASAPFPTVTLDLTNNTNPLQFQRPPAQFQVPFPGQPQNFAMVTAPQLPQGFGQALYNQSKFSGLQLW

B1: W-box probe (Biotin-Pr) (dsDNA)
DNA 1: GGAACTTGACCTTGACCTTAGGGCTGCAGGAATTCG
DNA 2: CGAATTCCTGCAGCCCTAAGGTCAAGGTCAAGTTCC
binding result (GST-SlWRKY28 [1]): binds

B2: W-box cold probe (Cold-Pr) (dsDNA)
DNA 1: GGAACTTGACCTTGACCTTAGGGCTGCAGGAATTCG
DNA 2: CGAATTCCTGCAGCCCTAAGGTCAAGGTCAAGTTCC
binding result (GST-SlWRKY28 [2]): binds
